Series [1] addresses T1, unphosphorylated Aurora-A 1-403 (UniProt O14965 1-403).
T1 sequence: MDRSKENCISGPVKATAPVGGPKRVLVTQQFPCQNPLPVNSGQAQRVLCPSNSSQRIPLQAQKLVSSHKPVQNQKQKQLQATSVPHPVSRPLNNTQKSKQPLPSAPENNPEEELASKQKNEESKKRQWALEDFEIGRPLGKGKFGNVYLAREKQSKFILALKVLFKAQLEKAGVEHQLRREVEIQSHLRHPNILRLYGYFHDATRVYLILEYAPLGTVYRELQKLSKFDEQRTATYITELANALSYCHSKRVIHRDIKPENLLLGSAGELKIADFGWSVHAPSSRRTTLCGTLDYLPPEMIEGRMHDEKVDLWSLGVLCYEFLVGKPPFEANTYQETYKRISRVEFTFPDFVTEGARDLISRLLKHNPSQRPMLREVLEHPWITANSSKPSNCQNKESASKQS
Put plainly: pull-down.

Another series concerns the target T2, Aurora-A kinase domain (UniProt O14965 122-403, C290A;K339C;C393A).
T2 sequence: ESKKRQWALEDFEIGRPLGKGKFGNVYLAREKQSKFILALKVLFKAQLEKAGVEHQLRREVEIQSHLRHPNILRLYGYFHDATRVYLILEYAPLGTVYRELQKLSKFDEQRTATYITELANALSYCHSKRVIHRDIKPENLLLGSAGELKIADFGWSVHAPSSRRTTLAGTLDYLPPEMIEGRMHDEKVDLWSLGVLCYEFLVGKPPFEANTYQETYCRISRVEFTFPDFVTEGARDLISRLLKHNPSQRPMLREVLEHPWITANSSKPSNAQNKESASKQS
Put plainly: EMSA. (In general: In EMSA bound probe runs differently from free probe, usually more slowly.)

In series [2] the target is T3, Aurora-A 1-403, unphosphorylated (UniProt O14965 1-403).
T3 sequence: T1 sequence
Put plainly: pull-down.

B1: 3xFLAG-MYCN 1-137 (domain or fragment)
chain: MPSCSTSTMPGMICKNPDLEFDSLQPCFYPDEDDFYFGGPDSTPPGEDIWKKFELLPTPPLSPSRGFAEHSSEPPSWVTEMLLENELWGSPAEEDAFGLGGLGGLTPNPVILQDCMWSGFSAREKLERAVSEKLQHG
For B1, the binding result in series [1] is listed as “binds”.

B2: UGhigh RNA, Cy5 (ssRNA)
RNA: UGCUGGGAUGGUCAUGGUGGGUGACCCUGGGAUGGCCGCGGUGGGUGACCCUGGAAUGGU
Regarding B2, the binding result in the series with Aurora-A kinase domain was “binds”.

B3: UGhigh RNA, biotin (ssRNA)
RNA: B2 RNA
For the molecule B3, the binding result in series [2] was “binds”.

(Values after paper doi:10.1101/2025.01.15.633177 (bioRxiv, 2025).)
